Key:
[1] = molecular target: human VISTA, native (on anti-CD3-activated human T cells and PBMCs) (human (homo sapiens))
[2] = molecular target: human VISTA, native (on anti-CD3-activated human T cells and PBMCs) (human (homo sapiens)); remark: listed apart in the source

- division of CFSE-labeled human CD3+ T cells with plate-bound anti-CD3 and rhVSIG-3 10 µg/mL, flow cytometry (% CD3+ T cells dividing (72 hours)) [1]: < 25
- ED50 of inhibition of MIP-1 alpha secretion, anti-CD3-activated human PBMCs (Quantikine ELISA) [2]: 0.5 µg/mL
- ED50 of inhibition of Rantes secretion, anti-CD3-activated human PBMCs (Quantikine ELISA) [2]: 0.5 µg/mL
- concentration at which inhibition of CXCL11 secretion occurred, anti-CD3-activated human PBMCs (Quantikine ELISA) [2]: 2 µg/mL
- concentration at which inhibition of IL-17 secretion occurred, anti-CD3-activated human PBMCs (Quantikine ELISA) [2]: 10 µg/mL
B1: Recombinant human VSIG3 Fc Chimera (Fc fusion)
chain: LEVSESPGSIQVARGQTAVLPCTFTTSAALINLNVIWMVTPLSNANQPEQVILYQGGQMFDGAPRFHGRVGFTGTMPATNVSIFINNTQLSDTGTYQCLVNNLPDIGGRNIGVTGLTVLVPPSAPHCQIQGSQDIGSDVILLCSSEEGIPRPTYLWEKLDNTLKLPPTATQDQVQGTVTIRNISALSSGLYQCVASNAIGTSTCLLDLQVISPQPRNIGLIAG

Source: patent US11649285B2
